What is called Kd is a measure of binding affinity in units of concentration. Usually stoichiometry N stands for a count of units in the complex or per binding partner.

The source of these data is paper PMC7251212, “Molecular Insight into TdfH-Mediated Zinc Piracy from Human Calprotectin by Neisseria gonorrhoeae” (mBio, 2020).

Assay [1] addresses T1, recombinant TdfH (Neisseria gonorrhoeae TonB-dependent transporter, NGO0952) (Neisseria gonorrhoeae, UniProt A0ACH0F8A9 1-922).
T1 construct: TdfH, Neisseria gonorrhoeae, locus NGO0952; full-length tdfH gene, codon-optimised for E. coli; The tag of pHIS2 is not described: the N-terminal 10x His tag and TEV site are told of the modified pET20b vector, which was not the source of the protein used; also called recombinantly produced TdfH; purified TdfH; not shown: His tag (from the Ni-NTA purification)
T1 sequence: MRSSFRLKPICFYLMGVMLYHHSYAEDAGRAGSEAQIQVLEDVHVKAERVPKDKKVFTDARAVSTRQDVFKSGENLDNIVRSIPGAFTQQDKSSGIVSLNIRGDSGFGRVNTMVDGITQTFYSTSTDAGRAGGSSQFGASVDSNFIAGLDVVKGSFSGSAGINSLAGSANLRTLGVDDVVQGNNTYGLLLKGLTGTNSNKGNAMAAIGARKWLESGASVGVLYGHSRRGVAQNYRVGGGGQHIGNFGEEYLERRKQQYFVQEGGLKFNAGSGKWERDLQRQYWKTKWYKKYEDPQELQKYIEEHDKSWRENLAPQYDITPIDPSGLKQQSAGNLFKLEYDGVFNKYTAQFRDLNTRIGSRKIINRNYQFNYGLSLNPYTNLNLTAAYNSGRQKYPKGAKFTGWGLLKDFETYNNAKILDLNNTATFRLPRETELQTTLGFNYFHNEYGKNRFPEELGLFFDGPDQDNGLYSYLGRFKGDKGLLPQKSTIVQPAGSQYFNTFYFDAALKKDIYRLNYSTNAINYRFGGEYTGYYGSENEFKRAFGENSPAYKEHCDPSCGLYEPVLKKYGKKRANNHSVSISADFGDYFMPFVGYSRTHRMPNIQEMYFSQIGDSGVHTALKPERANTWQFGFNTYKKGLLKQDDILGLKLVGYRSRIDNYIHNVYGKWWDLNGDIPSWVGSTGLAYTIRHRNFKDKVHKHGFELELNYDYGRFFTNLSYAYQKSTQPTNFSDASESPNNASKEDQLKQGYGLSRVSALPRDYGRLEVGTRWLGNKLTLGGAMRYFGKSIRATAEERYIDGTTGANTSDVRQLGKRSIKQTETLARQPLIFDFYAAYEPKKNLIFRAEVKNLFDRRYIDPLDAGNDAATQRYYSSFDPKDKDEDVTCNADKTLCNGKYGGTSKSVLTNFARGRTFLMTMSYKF
Kind of assay: ITC; Nano ITC, 25°C, 1x PBS with 0.05% DDM; TdfH (300 μl, 20 μM) in the cell, CP sample (200 μM) in 20 injections of 2.5 μl; fitted with NanoAnalyze to a two-state (multisite) model, TKO to a single-site model. The note with it: both partners purified. A general note: Isothermal titration calorimetry measures the heat released or taken up as one component is titrated into another.

The target in a further assay is T2, TdfH (Neisseria gonorrhoeae, UniProt A0ACH0F8A9 1-922).
T2 construct: TdfH, TonB-dependent transporter of Neisseria gonorrhoeae, locus NGO0952; full-length tdfH gene, codon optimised for E. coli; In 0.05% DDM; also called recombinant TdfH; NGO0952
The assay can be described thus: ITC; CP sample (200 uM) injected into TdfH (300 ul at 20 uM) in the cell, 20 injections of 2.5 ul every 300 s, 25 C, 1x PBS with 0.05% DDM; fitted with NanoAnalyze (multi-site model; independent model for TKO). The note with it: both partners purified.

B1: total knockout human calprotectin (both Zn binding sites mutated) (complex)
chain 1: MLTELEKALNSIIDVYNKYSLIKGNFNAVYRDDLKKLLETECPQYIRKKGADVWFKELDINTDGAVNFQEFLILVIKMGVAANKKSNEESHKE
chain 2: MTCKMSQLERNIETIINTFNQYSVKLGHPSTLNQGEFKELVRKDLQNFLKKENKNEKVIEHIMEDLDTNADKQLSFEEFIMLMARLTWASNEKMNEGDEGPGHHHKPGLGEGTP
modifications: Positions are not printed here. They follow the cited calprotectin site-knockout constructs and fit the printed counts (4 His-Asn in site 1; 3 His-Asn plus Asp-Ser in site 2). Cys kept as wild type …
Regarding B1, in assay [1], the dissociation constant Kd came to 13 µM.

B2: total knockout hCP (complex)
chain 1: B1 chain 1
chain 2: B1 chain 2
modifications: Same construct as m7. Positions come from the cited constructs and are not printed here.
Regarding B2, the “stoichiometry N” value with TdfH came out at 0.67 ± 0.12.
